B1: TK1 probe 3 (dsDNA)
DNA 1: CGGGCTAACACCTTCACACTTTATGCAGAAAGTAACAAGGAACCATTCTGAG
DNA 2: CTCAGAATGGTTCCTTGTTACTTTCTGCATAAAGTGTGAAGGTGTTAGCCCG
B2: TK1 probe 2 (dsDNA)
DNA 1: CCTGGCAGGGTCTACGGATATTATTAGCATAGTCAGGACTTCAATTTTCTTT
DNA 2: AAAGAAAATTGAAGTCCTGACTATGCTAATAATATCCGTAGACCCTGCCAGG
B3: TK1 probe 1 (dsDNA)
DNA 1: GGGACCTGGCACGCACTAGGCGCTCTGCATGCCCACAGGAGTGCTCTAGACG
DNA 2: CGTCTAGAGCACTCCTGTGGGCATGCAGAGCGCCTAGTGCGTGCCAGGTCCC

Biological target: OCT4 (human, UniProt Q01860 1-360)
Assay: EMSA; LightShift chemiluminescent EMSA kit (Thermo 20148) per manufacturer; buffer, salt, pH and temperature not stated
Conditions: protein: recombinant; label: 5' biotin on both strands; blunt

OCT4, sequence (Q01860 whole entry): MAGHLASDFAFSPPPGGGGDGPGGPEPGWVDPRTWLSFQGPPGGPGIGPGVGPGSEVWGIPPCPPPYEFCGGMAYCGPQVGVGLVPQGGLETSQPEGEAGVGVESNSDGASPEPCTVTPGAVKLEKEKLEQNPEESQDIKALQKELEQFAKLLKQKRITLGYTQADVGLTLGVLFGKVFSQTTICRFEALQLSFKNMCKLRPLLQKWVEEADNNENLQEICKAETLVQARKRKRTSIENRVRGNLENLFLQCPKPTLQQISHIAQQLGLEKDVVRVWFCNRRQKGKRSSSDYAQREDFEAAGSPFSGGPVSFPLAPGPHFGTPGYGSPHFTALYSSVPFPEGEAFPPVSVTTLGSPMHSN

Binding result, binds:
B1
B2
B3

From paper PMC12990707, “Multiple novel hepatocellular carcinoma signature genes are commonly controlled by the master pluripotency factor OCT4”
